{
  "source": "paper PMC5513672",
  "about": "(Chemical research in toxicology, 2017)",
  "proteins": {"B1": {"name": "Human recombinant ALDH2 protein (mitochondrial aldehyde dehydrogenase), untreated (enzyme, UniProt P05091 18-517, looked up)", "chain": "SAAATQAVPAPNQQPEVFCNQIFINNEWHDAVSRKTFPTVNPSTGEVICQVAEGDKEDVDKAVKAARAAFQLGSPWRRMDASHRGRLLNRLADLIERDRTYLAALETLDNGKPYVISYLVDLDMVLKCLRYYAGWADKYHGKTIPIDGDFFSYTRHEPVGVCGQIIPWNFPLLMQAWKLGPALATGNVVVMKVAEQTPLTALYVANLIKEAGFPPGVVNIVPGFGPTAGAAIASHEDVDKVAFTGSTEIGRVIQVAAGSSNLKRVTLELGGKSPNIIMSDADMDWAVEQAHFALFFNQGQCCCAGSRTFVQEDIYDEFVERSVARAKSRVVGNPFDSKTEQGPQVDETQFKKILGYINTGKQEGAKLLCGGGIAADRGYFIQPTVFGDVQDGMTIAKEEIFGPVMQILKFKTIEEVVGRANNSTYGLAAAVFTKDLDKANYLSQALQAGTVWVNCYDVFGAQSPFGGYKMSGSGRELGEYGLQAYTEVKTVTVKVPQKNS"}},
  "molecular_target": "the molecule itself",
  "assay": "native gel or EMSA",
  "data": [
    {"protein": "B1", "values": [
      {"measurement": "binding result", "result": "binds"}
    ]}
  ]
}
